According to patent US20160122739A1:

Assays:
Assay in all cases: cell-based or functional assay
[1] = molecular target: human plasma-derived Factor IXa (human) (UniProt P00740)
[2] = molecular target: recombinant human Factor IXa K126A (human) (UniProt P00740)
[3] = molecular target: recombinant human Factor IXa K126A/K132A (human) (UniProt P00740)
[4] = molecular target: recombinant human Factor IXa K126A/K132A/R150A (human) (UniProt P00740)
[5] = molecular target: recombinant human Factor IXa K126A/R150A (human) (UniProt P00740)
[6] = molecular target: recombinant human Factor IXa K132A (human) (UniProt P00740)
[7] = molecular target: recombinant human Factor IXa K132A/R150A (human) (UniProt P00740)
[8] = molecular target: recombinant human Factor IXa R150A (human) (UniProt P00740)
[9] = molecular target: recombinant human Factor IXa wild-type (human) (UniProt P00740)

- k2, inhibition of FIXa by ATIII/Fond (460 nM fondaparinux) [1]: 3520 M⁻¹ s⁻¹
- k2, inhibition of FIXa by ATIII/UFH (0.24 U/mL) [1]: 3430 M⁻¹ s⁻¹
- k2, inhibition of FIXa by ATIII/Fond (460 nM fondaparinux) [2]: 3300 M⁻¹ s⁻¹
- k2, inhibition of FIXa by ATIII/UFH (0.24 U/mL) [2]: 1560 M⁻¹ s⁻¹
- k2, inhibition of FIXa by ATIII/Fond (460 nM fondaparinux) [3]: 2640 M⁻¹ s⁻¹
- k2, inhibition of FIXa by ATIII/UFH (0.24 U/mL) [3]: 423 M⁻¹ s⁻¹
- k2, inhibition of FIXa by ATIII/Fond (460 nM fondaparinux) [4]: 68.3 M⁻¹ s⁻¹
- k2, inhibition of FIXa by ATIII/UFH (0.24 U/mL) [4]: 6.67 M⁻¹ s⁻¹
- k2, inhibition of FIXa by ATIII/Fond (460 nM fondaparinux) [5]: 63.3 M⁻¹ s⁻¹
- k2, inhibition of FIXa by ATIII/Fond (460 nM fondaparinux) [6]: 3250 M⁻¹ s⁻¹
- k2, inhibition of FIXa by ATIII/UFH (0.24 U/mL) [6]: 3740 M⁻¹ s⁻¹
- k2, inhibition of FIXa by ATIII/Fond (460 nM fondaparinux) [7]: 68.3 M⁻¹ s⁻¹
- k2, inhibition of FIXa by ATIII/Fond (460 nM fondaparinux) [8]: 71.7 M⁻¹ s⁻¹
- k2, inhibition of FIXa by ATIII/UFH (0.24 U/mL) [8]: 262 M⁻¹ s⁻¹
- k2, inhibition of FIXa by ATIII, no heparin [9]: 51.7 M⁻¹ s⁻¹
- k2, inhibition of FIXa by ATIII/Fond (460 nM fondaparinux) [9]: 3290 M⁻¹ s⁻¹
- k2, inhibition of FIXa by ATIII/UFH (0.24 U/mL) [9]: 4330 M⁻¹ s⁻¹
Substance: human plasma-derived antithrombin (from UniProt P01008 33-464)
